The values that follow come from paper PMC9534960, “De Novo Design of an Androgen Receptor DNA Binding Domain‐Targeted peptide PROTAC for Prostate Cancer Therapy” (Advanced Science, 2022).

Several values for one entry are separate records, joined by “and”; a condition that tells them apart may be missing. Identical values can stand only once.

Conditions in all cases: both partners purified
The target in assay [1] is T1, Androgen receptor splice variant‐7 (AR‐V7), recombinant from E. coli (UniProt P10275-3 1-644).
T1 construct: Plasmid bought from GenScript; also called pET‐28a (AR – V7); pET28‐AR‐V7; not shown: His tag (from the vector pET‐28a)
T1 sequence (looked up): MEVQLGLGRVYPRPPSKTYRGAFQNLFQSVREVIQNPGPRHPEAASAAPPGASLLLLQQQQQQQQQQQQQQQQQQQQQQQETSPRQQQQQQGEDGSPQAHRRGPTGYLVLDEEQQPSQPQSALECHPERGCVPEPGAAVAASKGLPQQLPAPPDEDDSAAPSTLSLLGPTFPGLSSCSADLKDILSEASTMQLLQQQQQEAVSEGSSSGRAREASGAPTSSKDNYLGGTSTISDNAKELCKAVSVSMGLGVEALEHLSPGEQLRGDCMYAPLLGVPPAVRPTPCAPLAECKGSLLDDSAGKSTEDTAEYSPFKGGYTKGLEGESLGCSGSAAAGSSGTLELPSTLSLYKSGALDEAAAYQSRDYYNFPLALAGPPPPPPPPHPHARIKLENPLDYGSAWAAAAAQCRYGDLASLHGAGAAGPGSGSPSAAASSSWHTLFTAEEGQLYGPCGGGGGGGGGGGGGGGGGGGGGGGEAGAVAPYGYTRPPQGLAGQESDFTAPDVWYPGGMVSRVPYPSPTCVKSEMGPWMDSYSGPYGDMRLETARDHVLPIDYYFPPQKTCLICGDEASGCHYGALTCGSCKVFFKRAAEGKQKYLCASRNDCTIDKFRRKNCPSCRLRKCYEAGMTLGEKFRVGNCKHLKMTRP
The experiment in a line: ITC; protein (around 20 µM, 0.2 ml) in the sample cell, peptide (around 200 µM) in the syringe; 25 °C; first injection 0.4 µl, then 19 injections of 2 µl.

Assay [2] addresses T2, MDM2, recombinant from E. coli (UniProt Q00987 1-491).
T2 construct: E3 ligase MDM2; Plasmid bought from GenScript; also called E3 ligase MDM2; pET‐28a (MDM2)
The description is as above.

The target of assay [3] is T3, MDMX (UniProt O15151 1-490).
T3 construct: MDMX; MDMX is not in the methods' list of proteins made in E. coli
T3 sequence (looked up): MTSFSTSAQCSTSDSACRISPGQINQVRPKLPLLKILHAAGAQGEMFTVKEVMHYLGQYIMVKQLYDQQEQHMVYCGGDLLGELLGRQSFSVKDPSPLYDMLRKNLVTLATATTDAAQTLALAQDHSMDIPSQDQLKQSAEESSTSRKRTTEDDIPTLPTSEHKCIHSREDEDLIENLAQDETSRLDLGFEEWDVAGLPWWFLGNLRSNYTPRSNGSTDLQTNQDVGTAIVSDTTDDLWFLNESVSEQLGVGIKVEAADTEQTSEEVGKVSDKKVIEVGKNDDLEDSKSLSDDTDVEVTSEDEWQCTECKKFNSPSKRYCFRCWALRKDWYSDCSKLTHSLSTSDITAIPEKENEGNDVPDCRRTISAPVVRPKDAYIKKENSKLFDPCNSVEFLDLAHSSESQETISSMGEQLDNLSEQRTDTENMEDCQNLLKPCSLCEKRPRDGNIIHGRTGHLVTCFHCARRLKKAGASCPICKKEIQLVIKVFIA
Described as above.

Assay [4] has as its target T4, AR DBD domain protein, labeled with rhodamine B (rhodamine B label).
T4 chain: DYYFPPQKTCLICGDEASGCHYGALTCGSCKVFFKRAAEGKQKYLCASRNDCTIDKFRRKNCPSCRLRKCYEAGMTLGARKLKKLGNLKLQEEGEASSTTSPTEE
The assay can be described thus: fluorescence polarisation; rhodamine B labeled AR DBD, 200 nM of AR DBD dimer in complex with DNA, rising AR pep‐PROTAC concentration; maximum FP taken as 100% dimer, minimum as monomer.

T2 sequence (Q00987 whole entry): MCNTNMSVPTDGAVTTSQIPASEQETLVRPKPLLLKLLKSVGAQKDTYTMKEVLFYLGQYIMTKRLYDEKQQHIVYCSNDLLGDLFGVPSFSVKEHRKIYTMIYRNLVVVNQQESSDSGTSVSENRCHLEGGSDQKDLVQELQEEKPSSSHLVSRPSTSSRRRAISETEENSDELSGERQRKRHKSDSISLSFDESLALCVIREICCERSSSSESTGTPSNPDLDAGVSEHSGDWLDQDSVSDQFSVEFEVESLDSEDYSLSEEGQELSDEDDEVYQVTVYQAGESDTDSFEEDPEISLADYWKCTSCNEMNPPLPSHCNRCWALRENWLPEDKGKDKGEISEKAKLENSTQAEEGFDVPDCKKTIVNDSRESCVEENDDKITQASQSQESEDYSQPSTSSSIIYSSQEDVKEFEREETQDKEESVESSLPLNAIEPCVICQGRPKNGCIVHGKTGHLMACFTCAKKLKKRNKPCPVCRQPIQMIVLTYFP

B1: AR pep‐PROTAC drug (designed peptide PROTAC) (peptide)
peptide: YLCSSNNNRERDKFRRGGSGGTSFEQFWAWLWP
notes: flexible linker; Free peptide in ITC and fluorescence polarisation; also called AR DBD PROTAC; AR DBD PROTAC drug; source: synthetic peptide (solid‐phase peptide synthesis, preparative HPLC)
As for B1, the Kd in assay [1] is 49.6 nM and 49.5 nM; in assay [2] it was 12.2 nM; in assay [3], 1430 nM. In assay [4], this molecule showed an EC50 of 1800 nM.
